T1: NHERF3_3, Q5T2W1
T1 sequence (Q5T2W1 238-333, limits assumed, looked up): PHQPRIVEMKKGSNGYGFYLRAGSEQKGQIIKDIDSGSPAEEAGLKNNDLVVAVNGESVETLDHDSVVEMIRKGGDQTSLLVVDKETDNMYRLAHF

T2: APBA3_1, O96018
T2 sequence (O96018 389-490, limits assumed, looked up): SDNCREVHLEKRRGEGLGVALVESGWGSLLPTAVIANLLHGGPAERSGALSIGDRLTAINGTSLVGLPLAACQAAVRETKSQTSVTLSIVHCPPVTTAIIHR

T3: APBA2_1, Q99767
T3 sequence (Q99767 563-664, limits assumed, looked up): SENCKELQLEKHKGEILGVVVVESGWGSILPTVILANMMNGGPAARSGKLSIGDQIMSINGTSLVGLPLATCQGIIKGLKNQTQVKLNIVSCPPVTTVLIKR

T4: APBA1_1, Q02410
T4 sequence (Q02410 651-752, limits assumed, looked up): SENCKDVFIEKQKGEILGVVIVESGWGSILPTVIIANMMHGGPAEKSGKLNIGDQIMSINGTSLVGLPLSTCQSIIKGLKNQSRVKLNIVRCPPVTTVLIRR

T5: NHERF3_1, Q5T2W1
T5 sequence (Q5T2W1 4-100, limits assumed, looked up): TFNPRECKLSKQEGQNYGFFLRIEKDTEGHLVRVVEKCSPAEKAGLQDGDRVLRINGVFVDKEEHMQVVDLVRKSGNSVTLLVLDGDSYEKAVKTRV

T6: DFNB31_1, Q9P202
T6 sequence (Q9P202 135-233, limits assumed, looked up): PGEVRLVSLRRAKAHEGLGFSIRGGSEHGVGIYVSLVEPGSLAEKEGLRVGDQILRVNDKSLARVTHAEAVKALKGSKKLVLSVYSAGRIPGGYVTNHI

T7: APBA1_2, Q02410
T7 sequence (Q02410 742-832, limits assumed, looked up): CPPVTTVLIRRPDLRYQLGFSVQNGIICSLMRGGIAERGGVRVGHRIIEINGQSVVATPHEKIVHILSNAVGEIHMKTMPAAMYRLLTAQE

T8: NHERF3_4, Q5T2W1
T8 sequence (Q5T2W1 373-468, limits assumed, looked up): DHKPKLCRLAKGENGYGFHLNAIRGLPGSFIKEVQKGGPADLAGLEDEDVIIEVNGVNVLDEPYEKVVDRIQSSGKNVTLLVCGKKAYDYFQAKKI

T9: PTPN13_1, Q12923
T9 sequence (Q12923 1088-1188, limits assumed, looked up): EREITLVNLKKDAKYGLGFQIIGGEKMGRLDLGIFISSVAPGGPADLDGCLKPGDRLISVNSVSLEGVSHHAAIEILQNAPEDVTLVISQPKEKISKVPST

T10: GRIP1_7, Q9Y3R0
T10 sequence (Q9Y3R0 999-1096, limits assumed, looked up): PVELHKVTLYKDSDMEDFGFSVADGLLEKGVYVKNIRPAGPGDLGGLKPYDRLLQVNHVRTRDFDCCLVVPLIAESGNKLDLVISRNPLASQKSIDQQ

T11: LRRC7, Q96NW7
T11 sequence (Q96NW7 1440-1537, limits assumed, looked up): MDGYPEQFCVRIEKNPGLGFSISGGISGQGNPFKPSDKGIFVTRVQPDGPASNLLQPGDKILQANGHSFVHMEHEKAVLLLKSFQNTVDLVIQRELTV

T12: FRMPD1, Q5SYB0
T12 sequence (Q5SYB0 52-145, limits assumed, looked up): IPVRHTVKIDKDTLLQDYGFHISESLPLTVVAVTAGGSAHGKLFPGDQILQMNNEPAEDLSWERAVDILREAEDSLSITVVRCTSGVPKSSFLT


How the values were obtained:
Test in all cases: holdup assay
Parameters in all cases: key: below the threshold = too weak to quantify, mostly under pKd 3.1 to 4
Conditions in all cases: plain residues with an end cap or a label only (N-terminal biotin on a linker: ado-ado)
DLG1_3, Q12959 = target: DLG1_3, Q12959
IL16_4, Q14005 = target: IL16_4, Q14005
FRMPD3, Q5JV73 = target: FRMPD3, Q5JV73
FRMPD4, Q14CM0 = target: FRMPD4, Q14CM0
NHERF3_3, Q5T2W1 = target: T1, NHERF3_3, Q5T2W1
APBA3_1, O96018 = target: T2, APBA3_1, O96018
APBA2_1, Q99767 = target: T3, APBA2_1, Q99767
APBA1_1, Q02410 = target: T4, APBA1_1, Q02410
NHERF3_1, Q5T2W1 = target: T5, NHERF3_1, Q5T2W1
DFNB31_1, Q9P202 = target: T6, DFNB31_1, Q9P202
APBA1_2, Q02410 = target: T7, APBA1_2, Q02410
NHERF3_4, Q5T2W1 = target: T8, NHERF3_4, Q5T2W1
Inadl_5, Q8NI35 = target: Inadl_5, Q8NI35
HTRA2, O43464 = target: HTRA2, O43464
PTPN13_1, Q12923 = target: T9, PTPN13_1, Q12923
DLG1_2, Q12959 = target: DLG1_2, Q12959
MAGI2_3, Q86UL8 = target: MAGI2_3, Q86UL8
GRIP1_7, Q9Y3R0 = target: T10, GRIP1_7, Q9Y3R0
GRID2IP_1, A4D2P6 = target: GRID2IP_1, A4D2P6
Inadl_2, Q8NI35 = target: Inadl_2, Q8NI35
DLG1_1, Q12959 = target: DLG1_1, Q12959
LRRC7, Q96NW7 = target: T11, LRRC7, Q96NW7
DLG2_3, Q15700 = target: DLG2_3, Q15700
GRIP2_7, Q9C0E4 = target: GRIP2_7, Q9C0E4
FRMPD1, Q5SYB0 = target: T12, FRMPD1, Q5SYB0
MAGI2_2, Q86UL8 = target: MAGI2_2, Q86UL8
Chain of MAGI2_2, Q86UL8 (Q86UL8 410-522): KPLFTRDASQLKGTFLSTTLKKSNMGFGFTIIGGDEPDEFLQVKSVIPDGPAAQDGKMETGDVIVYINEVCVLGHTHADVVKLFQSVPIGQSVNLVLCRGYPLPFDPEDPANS

Chain of MAGI2_3, Q86UL8 (Q86UL8 600-682): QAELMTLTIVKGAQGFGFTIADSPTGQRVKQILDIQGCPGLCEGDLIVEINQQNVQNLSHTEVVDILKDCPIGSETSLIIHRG
Chain of GRIP2_7, Q9C0E4 (Q9C0E4 934-1023): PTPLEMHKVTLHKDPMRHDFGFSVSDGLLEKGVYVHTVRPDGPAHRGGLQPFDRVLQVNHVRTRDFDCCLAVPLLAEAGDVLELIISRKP
Chain of IL16_4, Q14005 (Q14005 1229-1329): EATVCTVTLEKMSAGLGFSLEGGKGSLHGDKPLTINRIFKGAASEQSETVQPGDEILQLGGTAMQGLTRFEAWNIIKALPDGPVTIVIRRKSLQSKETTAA
Chain of GRID2IP_1, A4D2P6 (A4D2P6 1-87): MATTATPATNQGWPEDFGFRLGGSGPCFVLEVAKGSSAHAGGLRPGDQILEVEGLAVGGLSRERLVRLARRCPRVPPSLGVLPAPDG
Chain of FRMPD4, Q14CM0 (Q14CM0 67-160): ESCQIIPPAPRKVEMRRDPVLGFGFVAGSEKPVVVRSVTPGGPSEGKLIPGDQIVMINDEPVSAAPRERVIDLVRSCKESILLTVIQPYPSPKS
Chain of FRMPD3, Q5JV73 (Q5JV73 12-100): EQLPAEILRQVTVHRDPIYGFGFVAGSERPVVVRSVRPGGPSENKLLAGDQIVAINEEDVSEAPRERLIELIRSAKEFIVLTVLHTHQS
Chain of Inadl_2, Q8NI35 (Q8NI35 238-335): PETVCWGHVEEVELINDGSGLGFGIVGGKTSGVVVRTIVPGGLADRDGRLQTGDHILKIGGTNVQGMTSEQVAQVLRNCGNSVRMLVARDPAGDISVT
Chain of HTRA2, O43464 (O43464 355-458): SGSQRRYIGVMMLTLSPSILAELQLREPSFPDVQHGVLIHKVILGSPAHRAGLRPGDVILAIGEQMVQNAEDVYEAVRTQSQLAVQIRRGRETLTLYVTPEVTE
Chain of Inadl_5, Q8NI35 (Q8NI35 673-780): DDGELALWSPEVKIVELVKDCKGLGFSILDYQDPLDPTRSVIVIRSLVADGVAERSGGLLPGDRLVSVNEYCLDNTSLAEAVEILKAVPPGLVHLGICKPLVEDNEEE

Binder	pKd (DLG1_3, Q12959)	pKd (IL16_4, Q14005)	pKd (FRMPD3, Q5JV73)	pKd (FRMPD4, Q14CM0)	pKd (NHERF3_3, Q5T2W1)	pKd (APBA3_1, O96018)	pKd (APBA2_1, Q99767)	pKd (APBA1_1, Q02410)	pKd (NHERF3_1, Q5T2W1)	pKd (DFNB31_1, Q9P202)	pKd (APBA1_2, Q02410)	pKd (NHERF3_4, Q5T2W1)	pKd (Inadl_5, Q8NI35)	pKd (HTRA2, O43464)	pKd (PTPN13_1, Q12923)	pKd (DLG1_2, Q12959)	pKd (MAGI2_3, Q86UL8)	pKd (GRIP1_7, Q9Y3R0)	pKd (GRID2IP_1, A4D2P6)	pKd (Inadl_2, Q8NI35)	further results
QSARLWETSI [ADAM22, Q9P0K1]	4.66	3.47	below the threshold	below the threshold	below the threshold	below the threshold	below the threshold	below the threshold	4.88	5.41	below the threshold	below the threshold	below the threshold	below the threshold	below the threshold	4.47	below the threshold	below the threshold	below the threshold	below the threshold	pKd (DLG1_1, Q12959): 4.21; pKd (LRRC7, Q96NW7): below the threshold; pKd (DLG2_3, Q15700): 4.47; pKd (GRIP2_7, Q9C0E4): below the threshold; pKd (FRMPD1, Q5SYB0): below the threshold; pKd (MAGI2_2, Q86UL8): 3.72
MLSKQSESAI [FLVCR1, Q9Y5Y0]	3.77	below the threshold	below the threshold	below the threshold	below the threshold	below the threshold	below the threshold	below the threshold	3.81	4.86	below the threshold	below the threshold	below the threshold	below the threshold	below the threshold	3.82	below the threshold	below the threshold	below the threshold	below the threshold	pKd (DLG1_1, Q12959): below the threshold; pKd (LRRC7, Q96NW7): below the threshold; pKd (DLG2_3, Q15700): below the threshold; pKd (GRIP2_7, Q9C0E4): below the threshold; pKd (FRMPD1, Q5SYB0): below the threshold; pKd (MAGI2_2, Q86UL8): 3.8
TASPAKETSF [SLC2A7, Q6PXP3]	below the threshold	below the threshold	below the threshold	below the threshold	below the threshold	below the threshold	below the threshold	below the threshold	4.95	3.94	below the threshold	below the threshold	below the threshold	below the threshold	below the threshold	4.5	below the threshold	below the threshold	below the threshold	below the threshold	pKd (DLG1_1, Q12959): below the threshold; pKd (LRRC7, Q96NW7): below the threshold; pKd (DLG2_3, Q15700): 3.88; pKd (GRIP2_7, Q9C0E4): below the threshold; pKd (FRMPD1, Q5SYB0): below the threshold; pKd (MAGI2_2, Q86UL8): below the threshold
SAAKVLTSMC [GHRHR, Q02643]	3.6	below the threshold	below the threshold	below the threshold	below the threshold	below the threshold	below the threshold	below the threshold	3.94	below the threshold	below the threshold	4	below the threshold	below the threshold	below the threshold	below the threshold	below the threshold	below the threshold	below the threshold	below the threshold	pKd (DLG1_1, Q12959): below the threshold; pKd (LRRC7, Q96NW7): below the threshold; pKd (DLG2_3, Q15700): 3.8; pKd (GRIP2_7, Q9C0E4): below the threshold; pKd (FRMPD1, Q5SYB0): below the threshold; pKd (MAGI2_2, Q86UL8): below the threshold

Source: article PMC9482650, “Quantitative fragmentomics allow affinity mapping of interactomes” (Nature Communications, 2022)
